In patent publication US11390653B2, “Amino acid-specific binder and selectively identifying an amino acid” (priority 2018, dated 2022):

Key:
[1] = system: F1G2 peptide; assay: SPR, peptide on streptavidin chip, ClpS2 variant protein in solution; format: binding; settings: for specificity between N-terminal Phe and Trp, in words: from SPR binding data
Experimental: (§1) With regard to surface plasmon resonance (SPR), SPR data was collected by loading a streptavidin chip with the target biotinylated peptides in each of the four channels, and then flowing the protein over the chip at each concentration for 180 seconds before washing with 50 mM Tris-HCl, pH 8.0, 300 mM NaCl, 1 mM DTT, 5% glycerol buffer for 180 seconds. […] The four channels were used such that the negative control peptide (A1G2) was in channel 1, F1G2 in channel 2, W1G2 in channel 3, and Y1G2 in channel 4. The negative control peptide channel was used as a baseline for subtraction, which accommodates both any non-specific binding and refractive index change. A steady state response at each concentration was plotted and fit to calculate the KD, while the resonance units vs. time was used to calculate a koff for each mutant protein with each peptide.
(§2) Regarding characterization of the ClpS mutant protein binding kinetics, for peptide sequencing via some recently proposed methods reagents can bind peptides affixed to a surface. Two A. tumefaciens ClpS2 protein variants (V2, described above, and V1) were expressed and purified from E. coli. […] The binding properties of each variant were analyzed using surface plasmon resonance (SPR).

[2] = system: Y1G2 peptide; assay: as above; format: binding
Experimental: as §1, §2

[3] = system: W1G2 peptide; format: binding
Experimental: as §1, §2

[4] = system: F1G2 peptide; assay: yeast/peptide colorimetric pull-down assay; format: binding; settings: yeast-displayed protein
Experimental: (§3) Incubation and wash steps were repeated.

[5] = system: Leu NAA peptide; assay: yeast/peptide colorimetric pull-down assay; format: binding; settings: yeast-displayed protein
Experimental: as §3

[6] = system: Tyr NAA peptide; assay: yeast/peptide colorimetric pull-down assay; format: binding; settings: yeast-displayed protein
Experimental: as §3

[7] = thermal stability by intrinsic protein fluorescence; format: physicochemical; settings: compared with wild-type and V1
Experimental: The thermal stability of the variants was assessed. Each variant was loaded in 3×PBS at approximately 1 mg/mL concentration in capillary tubes and the intrinsic protein fluorescence recorded at 330 nm and 350 nm while heating the sample over a 35-95° C. at a rate of […].

[8] = molecular target: T1, W1G2 peptide (Agrobacterium fabrum, UniProt Q8UD95, E37S/P35C/R36P); format: binding; set-up: His6 (N); TEV protease cleavage site (N); made in house; host or cells: BL21 Escherichia coli; settings: SPR
Experimental: as §1, §2

[9] = molecular target: T1, W1G2 peptide; assay: flow cytometry of yeast displaying ClpS proteins; format: binding; set-up: factor Xa cleavage site (N); expressed in transfected cells; host or cells: Saccharomyces cerevisiae EBY100, pCTCON2 library clone; settings: yeast-displayed protein
Experimental: After two rounds of MACs selection, the library was sorted by flow cytometry. […] A typical reaction contained 100 μL of cells (containing approximately 10^6 cells), 10 μL of peptide at a concentration between 10 nM to 10 μM, and 25 μL of a master mix containing 2 μL of an anti-myc antibody, 4 μL of the SAPE (streptavidin, R-phycoerythrin conjugate—1 mg/mL) and 19 μL of PBS/BSA for each sample.
Cells were washed with PBS/BSA and sorted using a FACS Aria cytometer and collected in 1 mL of SD-CAA media. The number of cells that bound the peptide improved with each round and were sorted with sequentially lower concentrations of peptide to increase the stringency of the selection. […]
With regard to directed evolution of ClpS, random mutagenesis and screening was used to select proteins with higher affinity binding to the target NAA. In subsequent steps, specific residues were determined from initial screens with a targeted mutagenesis step. […] Using FACS, we assessed the affinity of each mutant for the N-terminal amino acid on the target peptide based on which quadrant the fluorescent signal fell into as shown in FIG. 15. […] If there is also a high fluorescence signal along the x-axis (streptavidin-PE) then the peptide is presumably bound to the protein variant, and the signal will appear in Q2. […]

[10] = relative specificity factor, ratio of binding affinities

B1: A. tumefaciens ClpS2 [Cys34 Pro35 Ser36] (protein, listed as Escherichia coli)
chain: SDSPVDLKPKPKVKPKLERPKLYKVMLLNDDYTCPSFVTVVLKAVFRMSEDTGRRVMMTAHRFGSAVVVVCERDIAETKAKEATDLGKEAGFPLMFTTEPEE
notes: ClpS2 variant, native residues 34-36 ProArgGlu mutated to CysProSer
- dissociation rate slowed over wild-type, Phe ([1]; SPR): 27.9 fold
- specificity between N-terminal Phe and Trp, in words [1]: more specific for Phe over Trp than the wild-type protein
- specificity between N-terminal Phe and Trp, in words ([1]; listed as CysProSer variant): selectively bound to Trp over Phe
- KOFF Phe ([1]; from SPR dissociation curves): 0.03 s⁻¹
- affinity for N-terminal Phe relative to wild-type, in words ([1]; in vitro surface binding assays): greater affinity
- Selectivity for Phe, Phe/Phe [1, 10]: 1.0
- Selectivity for Phe, Phe/Trp [1, 10]: 1.32
- Selectivity for Phe, Phe/Tyr [1, 10]: 0.10
- Kd ([1]; steady state, peptide on surface, 0 to 50 μM protein, read-out: KD Phe): 3.7 ± 0.3 µM
- KOFF Tyr ([2]; from SPR dissociation curves): 0.05 s⁻¹
- Selectivity for Tyr, Tyr/Phe [2, 10]: 9.82
- Selectivity for Tyr, Tyr/Trp [2, 10]: 12.91
- Selectivity for Tyr, Tyr/Tyr [2, 10]: 1.0
- Kd ([2]; steady state, peptide on surface, 0 to 50 μM protein, read-out: KD Tyr): 36.1 ± 4.4 µM
- KOFF Trp ([3]; from SPR dissociation curves): 0.03 s⁻¹
- affinity for N-terminal Trp relative to wild-type, in words ([3]; in vitro surface binding assays / SPR): greater affinity
- Selectivity for Trp, Trp/Phe [3, 10]: 0.76
- Selectivity for Trp, Trp/Trp [3, 10]: 1.0
- Selectivity for Trp, Trp/Tyr [3, 10]: 0.08
- Kd ([3]; steady state, peptide on surface, 0 to 50 μM protein, read-out: KD Trp): 2.8 ± 0.3 µM
- affinity for F1G2 peptide compared to wild-type [4]: increased binding affinity
- binding to Leu [5]: increased affinity
- binding affinity to Tyr compared to wild-type [6]: increased binding affinity
- thermal stability [7]: not as thermally stable
- decrease in KD for W1G2 peptide compared to wild-type [8]: 6.6 fold
- dissociation rate slowed over wild-type, Trp [8]: 51.3 fold
- affinity for W1G2 peptide compared to wild-type [9]: improved affinity
